Laboratory results published in paper PMC7327492 (2020).

B1: His-tagged 4x(LxxIxE) B56 inhibitor (designed binder)
chain: TGSTGSTGSTGSTGSLPRSSTLPTIHEEEELSLCTGSTGSTGSTGSTGSLPRSSTLPTIHEEEELSLCTGSTGSTGSTGSTGSLPRSSTLPTIHEEEELSLCTGSTGSTGSTGSTGSLPRSSTLPTIHEEEELSLC
B2: His-tagged 2x(LxxIxE) B56 inhibitor (designed binder)
chain: TGSTGSTGSTGSTGSLPRSSTLPTIHEEEELSLCTGSTGSTGSTGSTGSLPRSSTLPTIHEEEELSLC
B3: His-tagged 1x(LxxIxE) B56 inhibitor (designed binder)
chain: TGSTGSTGSTGSTGSLPRSSTLPTIHEEEELSLC

These binders were tested against Recombinant B56α (UniProt Q15172 1-486) (assay: ITC).
Chain of Recombinant B56α (Q15172 whole entry): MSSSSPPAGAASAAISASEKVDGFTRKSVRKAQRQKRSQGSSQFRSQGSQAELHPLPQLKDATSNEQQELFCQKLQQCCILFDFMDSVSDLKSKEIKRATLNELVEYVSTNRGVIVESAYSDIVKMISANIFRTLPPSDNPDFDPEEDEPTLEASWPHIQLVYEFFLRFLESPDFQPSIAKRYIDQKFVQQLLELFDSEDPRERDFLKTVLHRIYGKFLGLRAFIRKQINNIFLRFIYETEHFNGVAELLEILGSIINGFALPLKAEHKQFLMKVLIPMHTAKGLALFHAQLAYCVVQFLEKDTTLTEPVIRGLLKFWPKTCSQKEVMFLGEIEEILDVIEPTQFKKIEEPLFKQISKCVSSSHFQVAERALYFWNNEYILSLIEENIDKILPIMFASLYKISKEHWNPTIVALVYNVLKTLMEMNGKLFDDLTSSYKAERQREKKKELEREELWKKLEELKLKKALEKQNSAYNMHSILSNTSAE

Point of comparison: B3, Kd 1300 nM. Against it:
- B1 — 13-fold lower, 100 nM
- B2 — 6.5-fold lower, 200 nM
